Each block holds one substance with its values, some of them ahead of it.
Assays:
[1] = target: PAR-2 RING domain (PAR-2 residues 40-120, core RING domain and flanking dimerization helices) (C. elegans); assay: SEC-MALS; input sample 0.75 mg/ml, wild type compared with L109R; Superdex 75 Increase 10/300 GL, 20 mM Tris-HCl, 150 mM NaCl, 0.5 mM TCEP pH 7.5
[2] = target: PAR-2 RING domain (PAR-2 residues 40-120, core RING domain and flanking dimerization helices) (C. elegans); assay: SEC-MALS; input samples from 10 to 0.5 mg/ml, 100 µl on Superdex 75 Increase 10/300 GL, 20 mM Tris-HCl, 150 mM NaCl, 0.5 mM TCEP pH 7.5, 1.0 ml/min; weight-averaged molecular weight fitted to a monomer-dimer model
[3] = target: PAR-2 RING domain (PAR-2 residues 40-120, core RING domain and flanking dimerization helices) (C. elegans); assay: AUC; sedimentation equilibrium, interference data, 20,000 and 24,000 rpm, three PAR-2 RING concentrations, 20 mM Tris-HCl, 150 mM NaCl, 0.5 mM TCEP; global fit to a monomer-dimer model (SEDPHAT); dimer to monomers
[4] = target: PAR-2 RING domain (residues 40-120) L109R (C. elegans); assay: SEC-MALS; input sample 0.75 mg/ml, wild type compared with L109R; Superdex 75 Increase 10/300 GL, 20 mM Tris-HCl, 150 mM NaCl, 0.5 mM TCEP pH 7.5
[5] = target: mNG::PAR-2(L109R) (endogenously tagged PAR-2 with L109R) (C. elegans)

- dimer fraction at 0.75 mg/ml [1]: 35%
- stoichiometry N [2]: 2
- Kd [3]: 358 nM
Substance: PAR-2 RING domain (PAR-2 residues 40-120, core RING domain and flanking dimerization helices) (domain or fragment)

- dimer fraction at 0.75 mg/ml [4]: 5%
- fold reduction in dimer affinity against wild type [4]: 10 fold
Substance: PAR-2 RING domain (residues 40-120) L109R (domain or fragment)

- fold reduction in dimerization affinity against PAR-2(WT), from the simultaneous fit of the model to membrane and cytoplasmic concentrations in embryos (common KD^mem) [5]: 6 fold
Substance: mNG::PAR-2(L109R) (endogenously tagged PAR-2 with L109R) (natural protein)
